From US12139531B2, “Compositions and methods useful in promoting milk production” (The Regents of the University of California, priority 2019, dated 2024)
“Also recorded” adds a separate entry of the source.

T1: ROBO2 (Homo sapiens, UniProt Q9HCK4)
T1 construct: expressed in transfected cells; host or cells: Cos7
T1 sequence (Q9HCK4 22-1378): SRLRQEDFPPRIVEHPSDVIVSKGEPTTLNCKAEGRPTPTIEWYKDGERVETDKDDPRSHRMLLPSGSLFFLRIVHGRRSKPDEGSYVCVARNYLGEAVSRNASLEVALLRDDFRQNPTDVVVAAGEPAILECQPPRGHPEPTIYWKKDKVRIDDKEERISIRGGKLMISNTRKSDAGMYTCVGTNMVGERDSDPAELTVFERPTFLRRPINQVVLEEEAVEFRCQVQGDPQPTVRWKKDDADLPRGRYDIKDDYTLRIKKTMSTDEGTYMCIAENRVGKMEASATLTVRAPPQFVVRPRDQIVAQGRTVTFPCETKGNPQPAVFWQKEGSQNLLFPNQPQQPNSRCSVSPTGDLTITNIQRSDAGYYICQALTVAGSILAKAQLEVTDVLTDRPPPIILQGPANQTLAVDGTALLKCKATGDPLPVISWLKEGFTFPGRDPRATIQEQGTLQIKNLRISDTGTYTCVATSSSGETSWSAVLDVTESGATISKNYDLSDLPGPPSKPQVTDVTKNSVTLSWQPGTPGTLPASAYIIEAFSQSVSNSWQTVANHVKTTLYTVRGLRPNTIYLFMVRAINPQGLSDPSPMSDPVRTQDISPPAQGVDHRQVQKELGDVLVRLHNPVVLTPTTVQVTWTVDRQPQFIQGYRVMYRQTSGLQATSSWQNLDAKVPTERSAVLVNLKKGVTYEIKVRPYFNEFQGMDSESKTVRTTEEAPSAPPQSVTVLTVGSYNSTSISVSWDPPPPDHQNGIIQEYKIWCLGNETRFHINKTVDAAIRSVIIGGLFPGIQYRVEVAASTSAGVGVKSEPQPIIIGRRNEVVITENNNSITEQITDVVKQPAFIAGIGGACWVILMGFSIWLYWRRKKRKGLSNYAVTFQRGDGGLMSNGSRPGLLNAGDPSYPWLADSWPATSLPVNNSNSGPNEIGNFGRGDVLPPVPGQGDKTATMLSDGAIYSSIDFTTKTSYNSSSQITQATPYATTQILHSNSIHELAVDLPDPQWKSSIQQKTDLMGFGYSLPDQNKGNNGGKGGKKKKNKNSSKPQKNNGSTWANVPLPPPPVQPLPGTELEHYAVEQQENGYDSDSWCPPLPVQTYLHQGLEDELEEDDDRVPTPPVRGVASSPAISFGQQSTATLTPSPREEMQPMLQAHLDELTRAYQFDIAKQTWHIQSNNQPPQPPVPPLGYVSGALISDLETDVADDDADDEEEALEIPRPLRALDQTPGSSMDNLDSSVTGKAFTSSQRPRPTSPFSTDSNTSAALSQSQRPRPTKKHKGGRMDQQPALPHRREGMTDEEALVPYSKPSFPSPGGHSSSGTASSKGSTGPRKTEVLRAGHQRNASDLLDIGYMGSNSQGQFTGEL


How the values were obtained:
HC11 cells [1] = test: HC11 dome assay (milk dome formation on differentiation in DIP media); type: cell-based, mouse; settings: HC11 cells, increasing ECD concentration
Procedure: To investigate ROBO1 function during alveologenesis, Robo1 gene expression was inhibited in HC11 cells (Robo1 KD). HC11 cells are a well-established, prolactin-responsive model of lactation,^19,20. Cells in which Robo1 gene expression was not inhibited are referred to as WT or Robo1+/+ herein. To measure milk production, cells were grown to confluence and then primed by treatment with epidermal growth factor (EGF, 10 ng/ml). The EGF is administered for three days in combination with charcoal-stripped fetal bovine serum, followed by one day of charcoal-stripped fetal bovine serum in the absence of EGF. These primed cells are then differentiated by treatment with dexamethasone (1 μg/ml), insulin (5 μg/ml) and prolactin (Prl, 5 μg/ml) media (DIP media) for between 3 and 5 days (FIG. 2A). Differentiation (Dif) results in the development of milk-filled domes (FIG. 2B). […] If the cells were left undifferentiated (Undif), there was little dome formation in either WT or Robo1−/− cells (FIG. 2B). Next, tissue from Robo1 knockout mice (Robo1−/−) and wild type mice (WT or Robo1+/+) mice was analyzed. Mammary glands were harvested from pregnant day 18 WT and Robo1−/− animals and alveologenesis analyzed by serially sectioning, carmine staining and then quantifying the area occupied by alveoli in sections located at top, middle and bottom portions of the tissue.
Dome number formation in response to a titration of ROBO1 ECD fragments was quantified. […] A bovine ROBO1-Ig5 construct was also tested in this assay and, as with the rat constructs, more domes were formed in response to treatment with higher concentrations of […] (FIG. 7H).
HC11 cells were grown in RPMI 1640 media (Gibco) supplemented with 10% fetal bovine serum (BioFluid Technologies), 5 μg/mL insulin (Sigma), and 10 ng/ml epidermal growth factor (EGF; Sigma). To induce differentiation in HC11 cells, confluent plates were given fresh media (RPMI 1640 media supplemented with 5% charcoal-stripped fetal bovine serum (BioFluid Technologies), 5 μg/mL insulin, and 10 ng/ml epidermal growth factor (EGF; Sigma) for 3 days followed by 24 hours of priming in priming medium (RPMI 1640 media supplemented with 5% charcoal-stripped fetal bovine serum (BioFluid Technologies), and 5 μg/mL insulin. After priming, DIP medium (RPMI 1640 media supplemented with 5% charcoal-stripped fetal bovine serum (BioFluid Technologies), 10^−6 M dexamethasone (Sigma), 5 μg/mL insulin, and 5 μg/mL prolactin (National Hormone and Peptide program) was added with fresh media every 24 hours.

ROBO2 = target: T1, ROBO2; test: ECD binding assay on Cos7 cells overexpressing Robo2; settings: Cos7 cells overexpressing Robo2, sodium azide, 1H incubation, immunostaining
Procedure: Soluble ROBO1 ECD fragments ROBO1-Ig2 and ROBO1-Ig5 generated in the presence of heparin were used in a dome assay. […] Because treatment with heparin had only a modest positive effect on ROBO1 ECD production and a deleterious effect on their function (FIG. 6C, E), the use of heparin to generate soluble ROBO1 ECD fragments was not pursued. The ability of a ROBO1 ECD fragment to bind ROBO2 receptors was tested by overexpressing Robo2 in Cos7 cells, treating cells with sodium azide to prevent protein internalization and then incubating cells with ROBO1-Ecto-HA 1H prior to fixation and immunostaining.

HC11 cells [2] = test: Western blot analysis of WAP and PLIN2 in HC11 cells; type: cell-based, mouse; settings: ECD titration
Procedure: To determine whether the promotion of dome formation also results in higher milk production, HC11 cells were differentiated in the presence or absence of ROBO1-ECD fragments that were added to cells simultaneously with DIP media. Cells were harvested and the expression of WAP and Lalba assessed by RT-qPCR. […] WAP expression levels were not increased in cells treated with DCC-Ig4 (FIG. 7K). Next, Western blot analysis of WAP and PLIN2 was performed on cells treated with ROBO1-Ig5 and ROBO1-Ecto.
Protein lysates were prepared by directly lysing adherent cells in 1× sample buffer supplemented with 5% beta-mercaptoethanol and boiled for 5 minutes. Protein lysate was resolved by SDS-PAGE and transferred to a PVDF for 90 minutes at 400 mA or overnight at 30 mA. Primary antibodies were used at the concentration indicated in Table 1 and incubated overnight at 4° C. HRP conjugated secondary antibodies (Jackson Labs) were used at 1:3000 and incubated for 45 minutes at room temp. All proteins were detected using Clarity ECL (BioRad) using a BioRad Chemi-Doc MP Imager and quantified using ImageLab software as previously described a.

Notch signaling = test: RT-qPCR of Notch effector expression (Hey1, Hes1) in HC11 cells; type: cell-based, mouse; settings: HC11 cells treated with ROBO1-ECD fragments
Procedure: To examine the effects of ROBO1-ECD fragments on Notch signaling, HC11 cells were treated with ROBO1-ECD fragments and Notch effector expression assessed. […] In addition, HC11 cells were treated with ROBO-Ig5 during differentiation. These cells were then fractionated and a Western blot performed to detect HES1 and NOTCH4-ICD (FIG. 8B).
Total RNA was harvested from cells lysed in TRIzol reagent (Invitrogen) and phase separated according to manufacturer's protocol with an additional overnight RNA precipitation stem in ethanol (Macias et al., 2011). The RNA was further purified with TURBO DNase (Ambion) treatment. Total RNA quality was analyzed by agarose gel electrophoresis and quantified with an ND-1000 spectrophotometer (NanoDrop). cDNA libraries were prepared from 1 μg of total RNA using iScript cDNA synthesis kit (BioRad). Quantitative RT-PCR was performed in triplicates using light Cycler 480 SYBR Green I Master (Roche) and quantified using BioRad CFX'Connect Real-Time System and CFX Manager software (BioRad). Results were normalized to GAPDH.

HC11 cells [3] = test: Bodipy 493/503 neutral lipid staining of differentiated HC11 cells; type: cell-based, mouse; settings: Bodipy493/503 staining
Procedure: To determine whether the ROBO1 ECD fragments influence NOTCH4 signaling, HC11 assays were performed to monitor dome formation using both phase contrast microscopy (FIG. 7A, B, top), and fluorescent microscopy using hydrophobic Bodipy493/503 that binds neutral lipids (FIG. 7A, B, bottom). Undifferentiated (Undif) cells are distinct with interconnecting processes visible in phase contrast and little/no Bodipy staining (FIG. 7A). Upon differentiation and prolactin treatment, small lipid droplets accumulate that appear as dark-rimmed circles in phase contrast (FIG. 7B, top) and as punctate green circles by Bodipy staining (FIG. 7B, bottom).
Place cells in a half-volume of buffer or media. Make a 2× solution (2 μg/ml=7.6 μM) of Invitrogen™ BODIPY™ 493/503 dye in 0.5 mL volume of the same pre-warmed buffer or media (no cells, no BSA or serum) and mix vigorously to mechanically emulsify this solution. Immediately add to the solution of cells, mix and incubate up to 30 min.

| Molecule | dome formation in response to a titration of ECD fragments (HC11 cells [1]) | binding to ROBO2 (ROBO2) | PLIN2 protein expression (HC11 cells [2]) | WAP protein expression (HC11 cells [2]) | Hes1 expression (Notch signaling) | Hey1 expression (Notch signaling) | number of cells completely surrounded by lipid droplets (HC11 cells [3]) |
| --- | --- | --- | --- | --- | --- | --- | --- |
| DCC-Ig2: extracellular domain of Deleted in Colorectal Cancer comprising two Ig domains, HA tagged, negative control (protein, listed as Rattus norvegicus, HA tag, extracellular domain of Deleted in Colorectal Cancer comprising two Ig domains, HA tagged, negative control) FTSLHFVSEPSDAVTMRGGNVLLNCSAESDRGVPVIKWKKDGLILALGMDDRKQQLPNGSLLIQNILHSRHHKPDEGLYQCEASLGDSGSIISRTAKVMVAGPLRFLSQTESITAFMGDTVLLKCEVIGDPMPTIHWQKNQQDLNPIPGDSRVVVLPSGALQISRLQPGDSGVYRCSARNPASTRTGNEAEVRILSDPGL | not observed | does not bind |  |  |  |  |  |
| ROBO1-Ecto: recombinant soluble ROBO1 construct comprising the entire extracellular domain (protein, left off: small tags and cut ends, recombinant soluble ROBO1 construct comprising the entire extracellular domain) SRLRQEDFPPRIVEHPSDLIVSKGEPATLNCKAEGRPTPTIEWYKGGERVETDKDDPRSHRMLLPSGSLFFLRIVHGRKSRPDEGVYICVARNYLGEAVSHNASLEVAILRDDFRQNPSDVMVAVGEPAVMECQPPRGHPEPTISWKKDGSPLDDKDERITIRGGKLMITYTRKSDAGKYVCVGTNMVGERESEVAELTVLERPSFVKRPSNLAVTVDDSAEFKCEARGDPVPTVRWRKDDGELPKSRYEIRDDHTLKIRKVTAGDMGSYTCVAENMVGKAEASATLTVQEPPHFVVKPRDQVVALGRTVTFQCEATGNPQPAIFWRREGSQNLLFSYQPPQSSSRFSVSQTGDLTVTNVQRSDVGYYICQTLNVAGSIITKAYLEVTDVIADRPPPVIRQGPVNQTVAVDGTLTLSCVATGSPVPTILWRKDGVLVSTQDSRIKQLESGVLQIRYAKLGDTGRYTCTASTPSGEATWSAYIEVQEFGVPVQPPRPTDPNLIPSAPSKPEVTDVSKNTVTLLWQPNLNSGATPTSYIIEAFSHASGSSWQTVAENVKTETFAIKGLKPNAIYLFLVRAANAYGISDPSQISDPVKTQDVPPTTQGVDHKQVQRELGNVVLHLHNPTILSSSSVEVHWTVDQQSQYIQGYKILYRPSGASHGESEWLVFEVRTPTKNSVVIPDLRKGVNYEIKARPFFNEFQGADSEIKFAKTLEEAPSAPPRSVTVSKNDGNGTAILVTWQPPPEDTQNGMVQEYKVWCLGNETRYHINKTVDGSTFSVVIPSLVPGIRYSVEVAASTGAGPGVKSEPQF | higher rates of dome formation |  | approximately two-fold; also recorded: increased | approximately two-fold; also recorded: increased | lower expression; also recorded: decreased | lower expression; also recorded: decreased | higher number of cells completely surrounded by lipid droplets |
